Reference: article PMC9237840

Columns and labels:
Assay in all cases: EMSA
CrebA full-length = target: T1, CrebA full-length (Drosophila melanogaster, UniProt P29747 1-516)
T1 sequence: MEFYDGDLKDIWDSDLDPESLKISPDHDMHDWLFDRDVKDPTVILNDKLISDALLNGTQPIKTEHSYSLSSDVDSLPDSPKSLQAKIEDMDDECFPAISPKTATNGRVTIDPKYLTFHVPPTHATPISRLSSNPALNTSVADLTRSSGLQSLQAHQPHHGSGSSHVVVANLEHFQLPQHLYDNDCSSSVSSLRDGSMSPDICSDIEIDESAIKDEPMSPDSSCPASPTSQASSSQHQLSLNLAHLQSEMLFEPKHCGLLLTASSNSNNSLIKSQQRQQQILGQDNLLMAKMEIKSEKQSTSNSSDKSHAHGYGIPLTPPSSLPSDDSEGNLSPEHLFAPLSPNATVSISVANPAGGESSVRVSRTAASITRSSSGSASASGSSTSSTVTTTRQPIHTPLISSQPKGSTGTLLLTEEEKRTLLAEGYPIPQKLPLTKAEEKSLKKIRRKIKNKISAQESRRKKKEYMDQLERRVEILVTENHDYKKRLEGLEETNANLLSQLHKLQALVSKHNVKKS

[1] = target: T2, GST-Rib-PSQ DNA-binding domain (Drosophila melanogaster, UniProt Q7KF43 363-414)
T2 sequence: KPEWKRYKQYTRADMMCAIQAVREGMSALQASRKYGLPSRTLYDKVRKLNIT

Ribbon (Rib) full-length = target: T3, Ribbon (Rib) full-length (Drosophila melanogaster, UniProt Q7KF43 1-661)
T3 sequence: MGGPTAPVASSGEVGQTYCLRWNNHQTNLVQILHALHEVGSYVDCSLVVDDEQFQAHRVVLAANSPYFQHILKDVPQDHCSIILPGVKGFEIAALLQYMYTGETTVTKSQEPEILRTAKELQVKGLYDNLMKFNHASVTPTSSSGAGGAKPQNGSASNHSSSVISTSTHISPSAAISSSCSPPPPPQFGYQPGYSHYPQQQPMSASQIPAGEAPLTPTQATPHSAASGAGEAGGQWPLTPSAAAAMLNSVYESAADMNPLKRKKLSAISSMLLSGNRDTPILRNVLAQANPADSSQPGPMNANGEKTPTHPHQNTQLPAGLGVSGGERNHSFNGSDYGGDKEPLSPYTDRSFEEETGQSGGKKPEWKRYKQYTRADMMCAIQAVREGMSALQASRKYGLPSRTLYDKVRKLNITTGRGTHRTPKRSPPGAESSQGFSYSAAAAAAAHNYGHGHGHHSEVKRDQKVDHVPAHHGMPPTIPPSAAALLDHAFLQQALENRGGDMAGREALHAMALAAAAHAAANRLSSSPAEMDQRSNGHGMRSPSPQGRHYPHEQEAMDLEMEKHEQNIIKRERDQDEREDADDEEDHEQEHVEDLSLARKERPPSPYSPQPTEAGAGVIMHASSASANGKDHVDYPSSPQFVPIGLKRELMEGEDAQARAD

B1: TSN-2 (dsDNA)
DNA 1: ATCTGATTTGGTGACGTTGGCACCCTGCA
DNA 2: TGCAGGGTGCCAACGTCACCAAATCAGAT
CrebA full-length
  binding result: binds

B2: RpS17* (T to G in TC-rich motif) (dsDNA)
DNA 1: ACACAACCACCCTGGTCACACGGCATCCGGCGGGGGCGGGCGGGGCCGGC
DNA 2: GCCGGCCCCGCCCGCCCCCGCCGGATGCCGTGTGACCAGGGTGGTTGTGT
[1]
  binding result: binds
Ribbon (Rib) full-length
  binding result: binds

B3: RpS18 (dsDNA)
DNA 1: GGCAGCCACATTAATTCGGCCTTCTTTTCTTTTCCCGTTTCCGGTGAGTG
DNA 2: CACTCACCGGAAACGGGAAAAGAAAAGAAGGCCGAATTAATGTGGCTGCC
[1]
  binding result: binds
Ribbon (Rib) full-length
  binding result: binds

B4: P24.1 (dsDNA)
DNA 1: CCGATAGCATATACGTGGGTCCGCAGTGC
DNA 2: GCACTGCGGACCCACGTATATGCTATCGG
CrebA full-length
  binding result: binds

B5: RpS17 (dsDNA)
DNA 1: ACACAACCACCCTGGTCACACGGCATCCTTCTTTTTCTTTCGTTTCCGGC
DNA 2: GCCGGAAACGAAAGAAAAAGAAGGATGCCGTGTGACCAGGGTGGTTGTGT
[1]
  binding result: binds
Ribbon (Rib) full-length
  binding result: binds

B6: RpL11 (dsDNA)
DNA 1: CGCGGCCACACTATCCTTTCCTTCTTTTCTTACAAGTTTCCGGTGAGTGC
DNA 2: GCACTCACCGGAAACTTGTAAGAAAAGAAGGAAAGGATAGTGTGGCCGCG
[1]
  binding result: binds
Ribbon (Rib) full-length
  binding result: binds

B7: RpL7A (dsDNA)
DNA 1: AACTGCCACTTCCTTTCTTTTTCGTTCCACGTTTCCGGTGAGTGCATGTG
DNA 2: CACATGCACTCACCGGAAACGTGGAACGAAAAAGAAAGGAAGTGGCAGTT
[1]
  binding result: binds
Ribbon (Rib) full-length
  binding result: binds

B8: RpL19 (dsDNA)
DNA 1: TTCCGGCTGTCAAATTTTTCTTTCTTTCCTAGCCACGACGAGGTCGACAG
DNA 2: CTGTCGACCTCGTCGTGGCTAGGAAAGAAAGAAAAATTTGACAGCCGGAA
[1]
  binding result: binds
Ribbon (Rib) full-length
  binding result: binds

B9: RpS10b (dsDNA)
DNA 1: ATCCCTTCCGTTTCCCTTTCTTTTCGTCTTCACGTTTCCGGTGAGTGCGT
DNA 2: ACGCACTCACCGGAAACGTGAAGACGAAAAGAAAGGGAAACGGAAGGGAT
[1]
  binding result: binds
Ribbon (Rib) full-length
  binding result: binds

B10: RpS27A (dsDNA)
DNA 1: TTCAACTTCCTGTCACGCTGTGTGTGTGTTCTTTCTTTCCTTTGATTCTG
DNA 2: CAGAATCAAAGGAAAGAAAGAACACACACACAGCGTGACAGGAAGTTGAA
[1]
  binding result: binds
Ribbon (Rib) full-length
  binding result: binds

B11: RpL6 (dsDNA)
DNA 1: CCCTGGTCACACCGCTCTAGACATAACCTTCCTTTTCCAATAATTTTTGT
DNA 2: ACAAAAATTATTGGAAAAGGAAGGTTATGTCTAGAGCGGTGTGACCAGGG
[1]
  binding result: binds
Ribbon (Rib) full-length
  binding result: binds

B12: RpS3 (dsDNA)
DNA 1: AACGTGTCTCGCGCGGGCACACTGGCCTCTTTCTTTTCTGCGCACCACGT
DNA 2: ACGTGGTGCGCAGAAAAGAAAGAGGCCAGTGTGCCCGCGCGAGACACGTT
[1]
  binding result: binds
Ribbon (Rib) full-length
  binding result: binds

B13: RpL17 (dsDNA)
DNA 1: ACTGCCATTTCCTTTCTTTTTCGTTCCACGTTTCCGGTGAGTGCATGTGC
DNA 2: GCACATGCACTCACCGGAAACGTGGAACGAAAAAGAAAGGAAATGGCAGT
[1]
  binding result: binds
Ribbon (Rib) full-length
  binding result: binds
